Results as given in PMC3958441, “Isl1 and Pou4f2 Form a Complex to Regulate Target Genes in Developing Retinal Ganglion Cells” (PLoS ONE, 2014).

T1: Isl1 (mouse, UniProt P61372 1-349)
T1 sequence: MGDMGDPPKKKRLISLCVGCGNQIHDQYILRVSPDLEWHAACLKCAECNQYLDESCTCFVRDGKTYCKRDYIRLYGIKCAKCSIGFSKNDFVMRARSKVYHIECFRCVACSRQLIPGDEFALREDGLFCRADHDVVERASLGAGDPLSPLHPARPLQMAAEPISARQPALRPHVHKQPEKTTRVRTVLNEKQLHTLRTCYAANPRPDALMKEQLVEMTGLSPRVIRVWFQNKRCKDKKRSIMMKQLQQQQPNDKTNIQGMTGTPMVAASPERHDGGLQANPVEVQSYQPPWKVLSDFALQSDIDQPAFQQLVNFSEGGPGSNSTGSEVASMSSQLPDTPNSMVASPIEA

T2: Isl1D1 (mouse, UniProt P61372 1-181)
T2 sequence: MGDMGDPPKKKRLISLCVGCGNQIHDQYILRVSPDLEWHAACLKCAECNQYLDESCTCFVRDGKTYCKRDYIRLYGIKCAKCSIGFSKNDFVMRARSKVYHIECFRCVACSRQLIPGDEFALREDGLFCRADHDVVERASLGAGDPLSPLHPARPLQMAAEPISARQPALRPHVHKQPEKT

T3: Isl1D4 (mouse, UniProt P61372 146-349)
T3 sequence: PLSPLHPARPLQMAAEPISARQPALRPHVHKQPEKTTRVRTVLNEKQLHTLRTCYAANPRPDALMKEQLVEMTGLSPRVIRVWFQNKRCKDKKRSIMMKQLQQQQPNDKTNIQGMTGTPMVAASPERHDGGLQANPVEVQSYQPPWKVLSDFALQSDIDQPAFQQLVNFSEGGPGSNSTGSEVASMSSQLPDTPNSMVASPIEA

T4: Pou4f2D4 (mouse, UniProt Q63934 169-411)
T4 sequence: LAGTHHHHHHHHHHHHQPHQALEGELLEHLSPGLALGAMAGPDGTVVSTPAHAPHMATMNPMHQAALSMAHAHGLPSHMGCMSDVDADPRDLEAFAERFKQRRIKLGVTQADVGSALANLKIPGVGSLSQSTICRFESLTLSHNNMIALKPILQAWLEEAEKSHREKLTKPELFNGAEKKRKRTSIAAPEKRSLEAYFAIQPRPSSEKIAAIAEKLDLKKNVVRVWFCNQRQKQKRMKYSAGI

T5: Pou4f2D5 (mouse, UniProt Q63934 125-411)
T5 sequence: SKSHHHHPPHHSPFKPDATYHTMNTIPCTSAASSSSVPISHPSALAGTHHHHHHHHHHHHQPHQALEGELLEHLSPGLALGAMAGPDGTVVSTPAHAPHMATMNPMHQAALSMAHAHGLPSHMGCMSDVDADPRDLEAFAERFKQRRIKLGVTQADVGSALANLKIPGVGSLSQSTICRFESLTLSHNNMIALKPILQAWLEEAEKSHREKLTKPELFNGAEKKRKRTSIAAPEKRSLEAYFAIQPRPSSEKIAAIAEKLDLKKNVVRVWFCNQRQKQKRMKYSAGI

T6: Isl1D3 (mouse, UniProt P61372 170-349)
T6 sequence: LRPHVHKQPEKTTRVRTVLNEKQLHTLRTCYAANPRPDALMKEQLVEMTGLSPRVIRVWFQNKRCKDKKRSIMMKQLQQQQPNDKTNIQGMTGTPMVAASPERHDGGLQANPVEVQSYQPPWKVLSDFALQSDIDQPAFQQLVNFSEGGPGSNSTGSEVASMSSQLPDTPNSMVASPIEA

T7: Pou4f2D2 (mouse, UniProt Q63934 1-330)
T7 sequence: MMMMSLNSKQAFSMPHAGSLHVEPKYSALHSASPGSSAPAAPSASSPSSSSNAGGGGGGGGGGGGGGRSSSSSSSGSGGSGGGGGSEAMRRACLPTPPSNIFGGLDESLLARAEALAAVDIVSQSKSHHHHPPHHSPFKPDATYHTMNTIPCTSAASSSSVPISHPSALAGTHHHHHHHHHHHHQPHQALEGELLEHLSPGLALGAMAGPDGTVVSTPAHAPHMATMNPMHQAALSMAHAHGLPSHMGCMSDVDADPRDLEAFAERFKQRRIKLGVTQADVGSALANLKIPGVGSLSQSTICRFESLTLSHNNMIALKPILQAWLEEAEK


Tests used:
Experiment in all cases: EMSA; EMSA: 20 mM Tris-HCl pH 7.5, 50 mM NaCl, 10 mM DTT, 1 mM EDTA, 5% glycerol, 200 ng dI/dC, 200 ng each protein in 20 ul, 4 C, 30 min; 8% PAGE, 1x TBE, 4 C
Isl1 = molecular target: T1, Isl1; conditions: protein: recombinant; tags: His (C-terminal, pET-28a); (radiolabel, Klenow fill-in); 5' overhang 1 nt at both ends before fill-in
Isl1D1 = molecular target: T2, Isl1D1; conditions: protein: recombinant; tags: His (C-terminal); (radiolabel, Klenow fill-in); 5' overhang 1 nt at both ends before fill-in
Isl1D4 = molecular target: T3, Isl1D4; conditions: protein: recombinant; tags: His (C-terminal); (radiolabel, Klenow fill-in); 5' overhang 1 nt at both ends before fill-in
Pou4f2D4 = molecular target: T4, Pou4f2D4; conditions: protein: recombinant; tags: His (C-terminal); (radiolabel, Klenow fill-in); 5' overhang 1 nt at both ends before fill-in
Pou4f2D5 = molecular target: T5, Pou4f2D5; conditions: protein: recombinant; tags: His (C-terminal); (radiolabel, Klenow fill-in); 5' overhang 1 nt at both ends before fill-in
Isl1D3 = molecular target: T6, Isl1D3; conditions: protein: recombinant; tags: His (C-terminal); (radiolabel, Klenow fill-in); 5' overhang 1 nt at both ends before fill-in
Pou4f2D2 = molecular target: T7, Pou4f2D2; conditions: protein: recombinant; tags: His (C-terminal); (radiolabel, Klenow fill-in); 5' overhang 1 nt at both ends before fill-in

Row | Binder | binding result (Isl1) | binding result (Isl1D1) | binding result (Isl1D4) | binding result (Pou4f2D4) | binding result (Pou4f2D5) | binding result (Isl1D3) | binding result (Pou4f2D2)
1 | SBRN3(W) (dsDNA) DNA 1: GCACACGACCCAATGAATTAATAACCGGGCTG DNA 2: GCAGCCCGGTTATTAATTCATTGGGTCGTGTG | binds | no binding | binds | binds | binds | binds | no binding
2 | CBRN3(W) (dsDNA) DNA 1: GATCTCTCCTGCATAATTAATTACCCCCGGAT DNA 2: GATCCGGGGGTAATTAATTATGCAGGAGAGAT | binds | no binding | binds | binds | binds | binds | no binding
